Experimental data reported in patent US20240069033A1, “METHOD FOR SCREENING FOR CANDIDATE MOLECULE CAPABLE OF FORMING COMPLEX IN CONJUNCTION WITH PLURALITY OF TARGET MOLECULES” (Chugai Seiyaku Kabushiki Kaisha, priority 2020, published 2024).
No end group written: not given here. puromycin linker = puromycin spacer joining the C-terminus of the translated peptide to its mRNA (mRNA display); mRNA = not defined here

Tests used:
[1] = target: biotinylated GFP1-9; assay: mRNA display pull-down with biotinylated GFP1-9, qPCR
[2] = target: biotinylated GFP1-9; assay: mRNA display pull-down: 0.42 µM Display molecule with 1 µM biotinylated GFP1-9, streptavidin beads, TEV elution, qPCR
[3] = target: biotinylated GFP1-9; assay: mRNA display pull-down with biotinylated GFP1-9, qPCR; corrected with the display efficiency
[4] = target: anti-ubiquitin antibody (Mouse IgG1 monoclonal antibody; clone name FK2); assay: mRNA display pull-down on anti-ubiquitin antibody (FK2) magnetic beads, heat elution, qPCR
[5] = target: anti-ubiquitin antibody (Mouse IgG1 monoclonal antibody; clone name FK2); assay: mRNA display pull-down on anti-ubiquitin antibody (FK2) magnetic beads, qPCR; corrected with the display efficiency
[6] = target: anti-ubiquitin antibody (Mouse IgG1 monoclonal antibody; clone name FK2); assay: mRNA display pull-down on anti-ubiquitin antibody (FK2) magnetic beads, qPCR; display molecule at 0.4 µM
[7] = target: T1, biotinylated splitNanoluc1-8; assay: mRNA display pull-down with biotinylated splitNanoluc1-8, qPCR; corrected with the display efficiency
T1 chain: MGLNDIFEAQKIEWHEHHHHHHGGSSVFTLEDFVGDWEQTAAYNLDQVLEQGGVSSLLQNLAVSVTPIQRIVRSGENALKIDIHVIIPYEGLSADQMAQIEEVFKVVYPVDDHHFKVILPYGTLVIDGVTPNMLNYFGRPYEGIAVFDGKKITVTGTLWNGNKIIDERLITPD

[8] = target: T1, biotinylated splitNanoluc1-8; assay: mRNA display pull-down: 33 nM Display molecule with 1 µM biotinylated splitNanoluc1-8, streptavidin beads, TEV elution, qPCR

Work on MDLPDDHYLSTQTILLKDLNGSGSGSGSKK (modifications not checked) [GFP10] yielded a fold lower recovery rate than the GFP10-11 fusion peptide [1] of 1000 times, an Apparent recovery rate (%) [2] of 0.0237% and a Recovered nucleic acid amount (molecules) [2] of 2.32e+08 molecules. For the same binder, the Recovery rate (%) [3] was 0.028%.

In the case of MEKRDHMVLLEYVTAAGITDASGSGSGSGSKK (modifications not checked) [GFP11], the fold lower recovery rate than the GFP10-11 fusion peptide [1] is reported as 1000 times, the Apparent recovery rate (%) [2] is reported as 0.0109% and the Recovered nucleic acid amount (molecules) [2] is reported as 8.95e+07 molecules. It also gave a Recovery rate (%) [3] of 0.012%.

MMQIFVKTLTGKTATLEVEPSDTIENVKAKIQDKEGIPGSGSGSGSKK-{puromycin linker-mRNA} (reading uncertain; also: mRNA reverse transcribed before assay) [splitUb(N)] gave an Apparent recovery rate (%) [4] of 0.931%, a Recovered nucleic acid amount (molecules) [4] of 1.63e+10 molecules and a Recovery rate (%) [5] of 1.04%.

B1: Epep-splitUb(N) (protein)
chain: MKVSALENEVSALEKEVSVLEKEVSALEKEVRALEKGSGSGSGSMQIFVKTLTGKTATLEVEPSDTIENVKAKIQDKEGIPGSGSGSGSKK
modifications: C-terminus joined through a puromycin linker to its own mRNA (reverse transcribed before the assay)
B1 was tested, and the Recovery rate (%) [5] was 0.0004%, the Apparent recovery rate (%) [6] was 0.0001% and the Recovered nucleic acid amount (molecules) [6] was 377000 molecules.

Binder MGSMLFRVTINSGGGSGGGGSGVSGWRLFKKISGSGSGSGSENLYFQGKK (modifications not checked) [splitNanoluc9-10 fusion peptide] has a Recovery rate (%) [7] of 33.2%, an Apparent recovery rate (%) [8] of 12.6% and a Recovered nucleic acid amount (molecules) [8] of 3.45e+09 molecules.
